The results in this text go back to patent publication US20090169562A1 (CRUCELL HOLLAND B V, published 2009).

In experiment [1] the target is T1, bovine serum albumin (BSA) (bovine, UniProt P02769 25-607).
T1 construct: Control antigen coated at 1% in PBS (pH 7.4); also called negative control antigen
As to the kind of experiment: phage ELISA, 1% BSA coated, anti-M13-HRP detection. The procedure: (§1) Selected single-chain phage antibodies that were obtained in the screens described above were validated in ELISA for specific enterococcal binding activity, i.e. binding to one or more enterococcal strains prepared as described supra. 2.5×10⁸ bacteria were coated overnight at 4° C. to Maxisorp™ ELISA plates in 50 μl 50 mM carbonate buffer, pH 9.6. As negative controls, the complex antigens 2% ELK and 1% BSA both in PBS (pH 7.4) were coated. Wells were washed in PBS containing 0.1% (v/v) Tween-20 and blocked with 300 μl PBS containing 2% ELK for at least 1 hour at room temperature. The selected single-chain phage antibodies were incubated for 15 minutes in an equal volume of PBS containing 2% ELK to obtain blocked phage antibodies. The plates were emptied and the blocked single-chain phage antibodies were added to the wells. Incubation was allowed to proceed for one hour at room temperature, the plates were washed in PBS containing 0.1% (v/v) Tween-20 and bound phage antibodies were detected using an anti-M13 antibody conjugated to peroxidase. Absorbance at 492 nm was measured using a spectrophotometer. As a control, the procedure was performed simultaneously without single-chain phage antibody and with a negative control single-chain phage antibody directed against West Nile virus envelope protein (SC04-374).
(In general: ELISA stands for enzyme-linked immunosorbent assay.)

Experiment [2] has as its target T1, bovine serum albumin (BSA). Description: phage ELISA, BSA coated. The method, then: as §1

T1 sequence (P02769 25-607 limits assumed): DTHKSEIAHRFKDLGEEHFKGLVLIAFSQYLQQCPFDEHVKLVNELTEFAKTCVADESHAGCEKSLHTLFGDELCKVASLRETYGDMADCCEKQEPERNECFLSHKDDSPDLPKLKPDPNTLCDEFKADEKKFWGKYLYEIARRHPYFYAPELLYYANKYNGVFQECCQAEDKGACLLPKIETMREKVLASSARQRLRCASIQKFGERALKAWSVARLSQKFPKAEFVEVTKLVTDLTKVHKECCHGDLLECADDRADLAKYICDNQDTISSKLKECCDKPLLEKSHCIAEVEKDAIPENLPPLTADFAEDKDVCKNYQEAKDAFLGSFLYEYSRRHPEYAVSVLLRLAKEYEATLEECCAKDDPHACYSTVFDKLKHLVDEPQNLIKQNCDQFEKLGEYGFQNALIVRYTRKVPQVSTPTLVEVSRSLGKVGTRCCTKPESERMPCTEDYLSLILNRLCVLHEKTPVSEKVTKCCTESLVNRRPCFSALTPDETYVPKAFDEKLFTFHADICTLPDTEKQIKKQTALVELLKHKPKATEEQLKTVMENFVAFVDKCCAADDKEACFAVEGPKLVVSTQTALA

B1: SC05-179 (scFv)
scFv: EVQLVESGGGLVKPGGSLGLSCAASGFFFSDYSMSWIRQAPGKGLEWLSNISGSGHSTKYAESMRGRITISRDNAKKSLSLQLNSLRAEDTAVYFCVRGGGYRMDVWGQGTTVTVSSGTGGSGGTGSGTGGSTQSALTQPRSVPGSPGQSVTISCTGTSSDVGGYNYVSWYQQHPGKAPKLMIYDVSKRPSGVPDRFSGSKSGNTASLTVSGLQAEDEADYYCSSYAGSNNFVVFGGGTKLTVL
notes: Vl 134-244); also called single-chain phage antibody SC05-179
Turning to B1, in experiment [1], the OD492 nm was 0.045 OD492 nm. In addition, the binding result in experiment [2] was “no binding”.

B2: SC05-187 (scFv)
scFv: EVQLVQSGAEVKKPGESLKISCKGSGYSFTKYWIGWVRQMPGKGLEWMGIIYPGDSDTRYSPSFQGQVTISADKSISTAYLQWSSLKASDTAMYYCARGSGIATGNSFDSWGQGTLVTVSSGTGGSGGTGSGTGGSTQTVVTQEPSLTVSPGGTVTLTCASSTGAVTSGYYPNWFQQKPGQAPRALIYSTSKKHSWTPARFSGSLLGGRAALTLSGAQPEDEADYYCLLSYGGARVFGGGTKLTVL
notes: Vl 138-246); also called single-chain phage antibody SC05-187
For B2, the OD492 nm in experiment [1] worked out at 0.055 OD492 nm. Also, the binding result in experiment [2] was “no binding”.

B3: SC06-409 (scFv)
scFv: EVQLVQSGAEVKKPGESLKISCKGSGYSFTNYWIGWVRQMPGKGLEWMGIIYPGDSDTRYSPSFQGQVTISADKSISTAYLQWSSLKASDTAMYYCARHTQNKNGMNTFDIWGQGTMVTVSSGTGGSGGTGSGTGGSTQSALTQPPSASGSPGQSVTISCTGTSSDIGGYNYVSWYQQHPGKAPKLMIYEVSNRPPGVSNRFSGSKSGNTASLTISGLQAEDEADYYCSSYSTTTTRVIFGGGTKLTVL
notes: Vl 139-249); also called single-chain phage antibody SC06-409
With B3, the OD492 nm in experiment [1] was found to be 0.055 OD492 nm. Moreover, the binding result in experiment [2] is on record as “no binding”.

B4: SC06-242 (scFv)
scFv: EVQLVESGPGLVKPSETLSLTCTVSGGSISSYYWSWIRQPPGKGLEWIGYIYYTGTTNYNPSLNSRVTISADTSKNQFSLKLSSVTAADTAVYYCARGGQTAGVWGKGTTVTVSSGTGGSGGTGSGTGGSTQSVLTQPPSVSVAPGQTARITCGGYNIGRKSVHWYQQKPGLAPVLVVYDNSDRPSGIPARFSGSNSGNTATLTISGTQAMDEADYYCQAWDRGTAVFGTGTKVTVL
notes: Vl 132-237); also called single-chain phage antibody SC06-242
In turn, B4 registered an OD492 nm in experiment [1] of 0.043 OD492 nm. Also, the binding result in experiment [2] is on record as “no binding”.

B5: SC06-415 (scFv)
scFv: EVQLVESGGGLVQPGRSLRLSCAASGFTFDDYAMHWVRQAPGKGLEWVSGISWNSGSIGYADSVKGRFTISRDNAKNSLYLQMNSLRAEDSAVYYCARGGQRFDFWGQGTLVTVSSGTGGSGGTGSGTGGSTQSALTQPPSASGSPGQSVTISCTGTSSDVGGYNYVSWYQQLPGKAPKLLIYDVNNRPSGVSNRFSGSKSGNTASLTISGLQAEDEAEYYCGSSVGSRLRIFGGGTKLTVL
notes: Vl 133-242); also called single-chain phage antibody SC06-415
B5 had an OD492 nm in experiment [1] of 0.044 OD492 nm. Further, the binding result in experiment [2] is “no binding”.

B6: SC06-241 (scFv)
scFv: EVQLVESGGGLVQPGRSLRLSCAASGFTFRSYAMYWVRQAPGKGLEWLALISHDASKMFYADSVKGRFTISRDNSKNTLSLQMNSLTIEDTAVYYCVRERTGYYGAYWGQGTLVTVSSGTGGSGGTGSGTGGSTDIQMTQSPSSLSASVGDRVTLTCRASQGIGTWLAWYQQKPGKAPKLLIYSASSLQSGVPSRFSGSGSGTDFTLSISNLQPEDFATYYCQQANSFPITFGQGTRLEIK
notes: Vl 135-241); also called single-chain phage antibody SC06-241
For B6, the OD492 nm in experiment [1] stood at 0.052 OD492 nm. Besides, the binding result in experiment [2] is “no binding”.

B7: SC05-159 (scFv)
scFv: QVQLVQSGAEVKKPGATVKISCKVSGYTFTDYYMHWVQQAPGKGLEWMGLVDPEDGETIYAEKFQGRVTITADTSTDTAYMELSSLRSDDTAVYYCARAEVMTTINNWYFDLWGRGTLVTVSSGTGGSGGTGSGTGGSTSYVLTQPPSASGTPGQRVTISCSGSSSNIGSNNVSWYQQLPGTAPKLLIYSNNQRPSGVPDRFSGSKSGTSASLAISGLQSEDEADYYCAAWDDSLNGWVFGGGTKLTVL
notes: Vl 140-249); also called single-chain phage antibody SC05-159
Molecule B7 registered an OD492 nm in experiment [1] of 0.06 OD492 nm. Also, the binding result in experiment [2] is “no binding”.

B8: SC06-198 (scFv)
scFv: QLQLQESGPGLVKPSETLSLTCAVSGYSITSGYYWGWVRQPPGKGLEWIGSIYHTGSTYYNPSLKSRVTISVDTSKNQFSLKLNSLTAADTAVYFCASQSPAFDFWGQGTMVTVSSGTGGSGGTGSGTGGSTQSVLTQPPSVSGAPGQRVTISCTGSSSNIGTGYDVHWYQQLPGTAPKLLIYGNNNRPSGVPDRFSGSKSGTSASLAITGLQAEDEADYYCATWDDSLNGWVFGGGTKLTVP
notes: Vl 133-243); also called single-chain phage antibody SC06-198
The molecule B8 displayed an OD492 nm in experiment [1] of 0.049 OD492 nm. The binding result in experiment [2] is reported as “no binding”.

B9: SC06-429 (scFv)
scFv: QVQLVQSGAEVKNPGESLKISCKGSGYTFTSYWIGWVRQMPGKGLEWMGSIYPGDSDTRYSPSFQGQVTISVDKSISTAYLQWSSLKASDTAMYYCARQYRAGSTTRFDPWGQGTLVTVSSGTGGSGGTGSGTGGSTDVVMTQSPLSLPVTPGEPASISCRSSQSLRHRNGNNYLDWYLQKPGQSPQLLIYLGSNRASGVPDRFSGSGSGTDFTLKISRVEAEDVGIYYCMQALQTPLTFGGGTKVEIK
notes: Vl 138-249); also called single-chain phage antibody SC06-429
Take B9: the OD492 nm in experiment [1] is 0.068 OD492 nm. For the same molecule, in experiment [2], the binding result is given as “no binding”.

B10: SC06-252 (scFv)
scFv: EVQLVETGGGLVQPGGSLRLSCAASGLTFSSYAMSWVRQAPGKGLEWVSALSGSTTFYADSVKGRFTISRDNAKNTLYLQMNSLRAEDTAVYYCARGNYYGMDVWGQGTTVTVSSGTGGSGGTGSGTGGSTSYVLTQPPSASGTPGQRVTISCSGSSSNIGKFYVYWYQQFPGAAPKLLIYSNNQRPSGVPDRFSGSKSGTSASLAISGLQSEDEADYYCAAWDGSLNGYVFGTGTKVTVL
notes: Vl 132-241); also called single-chain phage antibody SC06-252
As for B10, the OD492 nm in experiment [1] came to 0.044 OD492 nm. The binding result in experiment [2] was “no binding”.

B11: SC06-089 (scFv)
scFv: EVQLVETGGGLVQPGGSLRLSCAASGFTFSSYSMNWVRQAPGKGLEWVSFISSSSSTIYYADSVKGRFTIARDNAKNSLYLQMNSLRDEDTAVYYCARPVGTGISLFHAFDIWGQGTMVTVSSGTGGSGGTGSGTGGSTQSVLTQPPSVSVAPGQTARITCGGNNIGSKYVHWYQQKPGQAPVLVVYDDSDRPSGIPERFSGSNSGNTATLTISRVEAGDEADFYCQVWDGSSDPVVFGGGTKLTVL
notes: Vl 140-247); also called single-chain phage antibody SC06-089
For the molecule B11, the OD492 nm in experiment [1] stood at 0.042 OD492 nm. For the same molecule, the binding result in experiment [2] is recorded as “no binding”.

B12: SC06-432 (scFv)
scFv: QLQLQESGPGLVKPSQTLSLTCTVSGGSISSGGYYWSWIRQHPGKGLEWIGYIYYSGSTYYNPSLKSRVTISVDTSKNQFSLKLSSVTAADTAVYYCARERILDRMNDYWGQGTLVTVSSGTGGSGGTGSGTGGSTQSVVTQPPSVSGAPGQRVTISCTGSSSNIGAGYDVHWYQQLPGTAPKLLIYGNSNRPSGVPDRFSGSKSGTSASLAITGLQAEDEADYYCQSSDSSLNILFGGGTKLTVL
notes: Vl 137-246); also called single-chain phage antibody SC06-432
In experiment [1], B12 registered an OD492 nm of 0.059 OD492 nm. In experiment [2], the binding result is recorded as “no binding”.

B13: SC05-157 (scFv)
scFv: EVQLVESGAEVKKPGESLKISCKGSGYSFTNYWIGWVRQMPGKGLEWMGIVYPGDSDTRYSPSFQGQVTISADKSISTAYLQWSSLKASDTAVYYCARRMAVAGSDAFDIWGQGTMVTVSSGTGGSGGTGSGTGGSTQAVLTQPSSASGTPGQTVTISCSGSTSNIGSHNVNWYQHLPGTAPKLLIYINNKRPSGVPDRFSGSKSGSSASLAISGLQSEDEADYYCAAWDDSLRRPVFGGGTQLTVL
notes: Vl 138-247); also called single-chain phage antibody SC05-157
B13: the OD492 nm in experiment [1] came out at 0.058 OD492 nm. The binding result in experiment [2] was “no binding”.

B14: SC06-246 (scFv)
scFv: EVQLVESGGGLIQPGGSLRLSCAASGFTVSSDFMTWVRQAPGRGLEWVSLIYSGGKTNYADSVKGRFTISRDNSRNTLYLQMNSLRAEDTAVYYCARSVCSTISCSKLDDWGQGTLVTVSSGTGGSGGTGSGTGGSTQAVLTQPSSVSVAPGQTARITCGGNNIGRKSVHWYQQKPGLAPVLVVNDNSDRPSGIPARFSGSNSGNTATLTISRVEAGDEADYYCHVWGSSRDHYVFGTGTKVTVL
notes: Vl 138-245); also called single-chain phage antibody SC06-246
In experiment [1], B14 displayed an OD492 nm of 0.042 OD492 nm. In addition, the binding result in experiment [2] is recorded as “no binding”.

B15: SC06-092 (scFv)
scFv: EVQLVESGGGLVQPGRSLRLSCTGSGFTFGDYAMSWFRQAPGKGLEWVGFIRNKAYGGTAEYAASVKDRFIISRDDSKSIAYLQMNSLKTEDTAVYYCVRREYDTGWLDYWGQGTLVTVSSGTGGSGGTGSGTGGSTQSALTQPPSASGSPGQSVTISCTGTSSDVGGYNYVSWYQRHPGKAPKLMIYDVTDRPSGVSNRFSGSKSGNTASLTISGLQAEDEADYYCSSYTSSSTSAVFGGGTKLTVL
notes: Vl 138-248); also called single-chain phage antibody SC06-092
Turning to B15, the OD492 nm in experiment [1] stood at 0.047 OD492 nm. For the same molecule, in experiment [2], the binding result is given as “no binding”.

B16: SC06-191 (scFv)
scFv: EVQLVESGGGVVQPGRSLRLSCVASEFTFSNYGMHWVRQAPGKGLEWVAVIWYDGSNEDYADSVKGRFTISRDNSKNTVYLHMNSLRAEDTAVYFCTRGQYSSTWFLDYWGQGTLVTVSSGTGGSGGTGSGTGGSTDIQLTQSPSTLSASVGDRVTITCRASQSISSWLAWYQQKPGKAPKLLIYKASSLETGVPSRFSGSGSGTDFTLTISSLQPEDFATYYCQQANSFPLTFGGGTKVDIK
notes: Vl 137-243); also called single-chain phage antibody SC06-191
Take B16: the OD492 nm in experiment [1] was found to be 0.044 OD492 nm. Besides, the binding result in experiment [2] is recorded as “no binding”.
